{"source": "patent US20140335077A1", "about": "“Compositions and Methods for the Treatment of Cancer Using IGF-IR Antagonists and MAPK/ERK Inhibitors” (priority 2013, published 2014)", "key": {"IGF-1R [1]": {"target": "T1, IGF-1R (Mus musculus, UniProt Q60751)", "T1 construct": "MEF cells expressing full length, wild type IGF-1R; endogenous in cells; host or cells: MEF, and MEF knockout for β-arrestin1, β-arrestin2 or both", "T1 sequence (Q60751 31-737 limits assumed)": "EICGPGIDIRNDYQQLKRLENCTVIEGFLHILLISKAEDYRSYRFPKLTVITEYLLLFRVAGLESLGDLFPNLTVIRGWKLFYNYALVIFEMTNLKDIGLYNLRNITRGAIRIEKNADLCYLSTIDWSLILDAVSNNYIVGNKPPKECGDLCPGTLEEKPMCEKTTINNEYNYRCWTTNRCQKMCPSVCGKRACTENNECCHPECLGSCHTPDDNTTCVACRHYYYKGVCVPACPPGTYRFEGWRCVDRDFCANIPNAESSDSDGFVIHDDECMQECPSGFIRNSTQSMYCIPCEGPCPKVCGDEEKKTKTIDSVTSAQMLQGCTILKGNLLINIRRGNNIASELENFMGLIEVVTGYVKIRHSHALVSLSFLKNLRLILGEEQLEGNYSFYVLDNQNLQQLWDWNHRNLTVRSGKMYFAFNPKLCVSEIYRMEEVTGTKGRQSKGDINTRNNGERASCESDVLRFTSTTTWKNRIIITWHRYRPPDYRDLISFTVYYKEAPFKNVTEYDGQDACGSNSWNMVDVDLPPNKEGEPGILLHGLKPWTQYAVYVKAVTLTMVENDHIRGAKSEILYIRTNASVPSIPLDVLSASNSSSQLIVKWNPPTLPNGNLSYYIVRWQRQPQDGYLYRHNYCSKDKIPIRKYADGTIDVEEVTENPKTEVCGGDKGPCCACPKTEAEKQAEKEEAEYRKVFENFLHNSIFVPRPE", "T1 sequence (Q60751 742-1373 limits assumed)": "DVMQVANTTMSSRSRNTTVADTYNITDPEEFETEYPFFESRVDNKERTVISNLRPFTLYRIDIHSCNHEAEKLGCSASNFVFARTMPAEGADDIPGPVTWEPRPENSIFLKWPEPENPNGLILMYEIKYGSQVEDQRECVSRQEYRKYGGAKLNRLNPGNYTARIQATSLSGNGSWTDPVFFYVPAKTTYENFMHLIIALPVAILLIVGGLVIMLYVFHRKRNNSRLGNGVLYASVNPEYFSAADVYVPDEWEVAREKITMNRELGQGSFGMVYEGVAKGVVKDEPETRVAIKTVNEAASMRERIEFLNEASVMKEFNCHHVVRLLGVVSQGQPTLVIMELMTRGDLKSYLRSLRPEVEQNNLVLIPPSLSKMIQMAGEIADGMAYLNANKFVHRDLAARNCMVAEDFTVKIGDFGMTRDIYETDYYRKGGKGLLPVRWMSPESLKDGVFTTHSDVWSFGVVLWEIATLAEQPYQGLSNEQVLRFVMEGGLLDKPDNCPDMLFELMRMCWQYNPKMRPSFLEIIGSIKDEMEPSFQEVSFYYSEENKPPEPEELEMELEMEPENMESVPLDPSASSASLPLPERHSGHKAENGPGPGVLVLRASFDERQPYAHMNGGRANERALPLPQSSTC", "assay": "IGF-1R degradation in MEF cells (β-arrestin knockouts, Δ1245 IGF-1R), WB", "format": "cell-based", "conditions": "24 h", "method": "(§1) Protein lysates were analyzed by WB for IGF-1R and GAPDH as a loading control. […] Data correspond to the mean±SEM from three independent experiments. (B,D) Cell viability of the CP-treated cells for 48 h, in the absence (SFM) or presence of serum, was evaluated by PrestoBlue reagent. […] Data correspond to the mean±SEM from three independent experiments.\n(§2) Appropriate primary antibody was incubated overnight at 4° C."}, "IGF-1R [2]": {"system": "IGF-1R", "assay": "IGF-1R degradation in MEF cells (β-arrestin knockouts, Δ1245 IGF-1R), WB", "format": "cell-based, mouse", "conditions": "R− MEF expressing Δ1245 IGF-1R; over 48 h", "method": "as §1, §2"}, "[3]": {"system": "IGF-1R, AKT and ERK phosphorylation", "assay": "IGF-1R signaling activation in ES cell lines (WB for P-IGF-1R, P-AKT, P-ERK)", "format": "cell-based", "conditions": "serum starved ES cells"}}}
{"substance": "IGF-1: classical ligand of IGF-1R, used at 50 ng/ml for stimulation", "values": [{"measurement": "IGF-1R degradation", "setting": "IGF-1R [1]; MEF without β-arr1 (β1KO or β1/2 KO)", "value": "almost completely abolished"}, {"measurement": "IGF-1R degradation", "setting": "IGF-1R [1]; control MEF and β2KO cells (expressing β-arr1)", "value": "drastically downregulated the receptor"}, {"measurement": "Degradation of truncated IGF-1R (Δ1245)", "setting": "IGF-1R [2]", "value": "resistant"}, {"measurement": "Time to phosphorylation of the IGF-1R activation loop", "setting": "[3]", "value": "≤ 2", "unit": "min"}]}
